In one series the test system is O=Cc1ccc(-c2ccccc2)cc1. Briefly: purified protein. The class given is biochemical, Thalictrum flavum. The note with it: co-substrate dopamine (concentration not stated), aldehyde 0.5-50 mM, general assay: HEPES pH 7.5, 20% DMSO, 5 mM ascorbic acid.
Another series deals with O=Cc1ccccc1. In words: purified protein. The class given is biochemical, Thalictrum flavum. As to conditions: co-substrate dopamine (concentration not stated), aldehyde 0.5-50 mM, general assay: HEPES pH 7.5, 20% DMSO, 5 mM ascorbic acid.

Broadly, the Km is the concentration of substrate that gives half-maximal velocity. As to “TfNCS (norcoclaurine synthase) (Thalictrum flavum subsp. glaucum)”, the Michaelis-Menten constant (Km) in the series on O=Cc1ccc(-c2ccccc2)cc1 turned out to be 15.0 ± 4.6 mM; in the series on O=Cc1ccccc1, 22.3 ± 6.7 mM.

Consider “TfNCS (norcoclaurine synthase) (Thalictrum flavum subsp. glaucum; L68T/M97V)”, for which the Km is on record as 14.6 ± 5.1 mM in the series with O=Cc1ccc(-c2ccccc2)cc1 and 20.1 ± 5.3 mM in the series with O=Cc1ccccc1.

The record behind these values is publication PMC10992437, “Engineering a norcoclaurine synthase for one-step synthesis of (S)-1-aryl-tetrahydroisoquinolines” (Bioresources and Bioprocessing, 2023).
